Test results from the nanobody polyreactivity screen of Harvey et al. (2022).

Assay: yeast display, Sf9 membrane polyspecificity reagent, FACS + sequencing; frameworks hold sequencing errors
In short: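 Galactose induction of a Saccharomyces cerevisiae BJ5465 synthetic nanobody display library ran 36–48 hours. The cells were then stained for 1 hour at 4 °C with 10% biotinylated, detergent-solubilized Sf9 membrane reagent, pulled down on streptavidin microbeads and FACS-sorted into low and high (top ~1%) gates on expression and reagent-binding fluorescence. Labels for polyreactivity follow the gate of origin.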

Row | Sequence | polyreactivity (PSR sort gate)
1 | QVQLVESGGGLVQAGGSLRLSCAASGSIFIAYGMVWYRQEPGKERELVAAITVSGGNTYYADSVKGRFTISRDNAKNTVYLQMNSLKPEDTAVYYCAADYWYYYGKVLYDYWGQGTQVTVSS | low polyreactivity
2 | QVQLVESGGGLVQAGGSLRLSCAASGSIFLDNAMGWYRPAPGKERELVAAISRRGGTTYYADSVKGRFTISRDNAKNTVYLQLNSLIPEDTAVYYCAARYPGGKYYSYTYNYWGQGTQVTVSS | high polyreactivity
3 | QVQLVESGGGLVQAGGSLRLSCAASGSTFRYNAMGWYRQAPGKEREVVAAISRIGGTTYADSVKGRFTISRDNAKNTVYFQMNSLKPEDTAVYYCARANWGYYGPEYGYWGQGTQVTVSS | high polyreactivity
4 | QVQLVESGGGLVQAGGSLRLSCAASGGIFSYYAMGWYRQAPGKEREFVAAIDWGGGSTYYADSVKGRFTISRDNAKNTVYLQMNSLKPEDTAVYYCAAEIYPIGWDDYDYWGQGTQVTVSS | low polyreactivity
5 | QVQLVESGGGLVQAGGSLRLSCAPSGIIFYAYAMGWYRQAPGKEREFVAAINNSGGRTYYADSVKGRFTISRDNAKNTVYLQMNSLKPEDTAVYYCAVYSYYRRTYRREMDYWGQGTQVTVSS | high polyreactivity
6 | QVQLVESGGGLVQAGGSLRLSCAASGFTFAYIAMGWYRQAPGKERELVAAITVSGGRTYYADTVKGRFTISRDNAKNTVYLQMYSLKPEDTAVYYCAATVRVRTNSWMDYWGQGTQVTVSS | low polyreactivity
7 | QVQLVESVGGLVQAGGSLRLSCAASGITFRWNAMGRYRQATGKERELVAAIRRSGRTYYADSVKGRFTISRDNAKNTVYLQMNSLKPEDTAVYYCAAVSGYRSSKYDYWGQGTQVTVSS | high polyreactivity
8 | QVHLVESGGGLVQAGGSIRLSCAASGGTFSRNAMGWYRQAPGKERELVAAINSSGVSTSYADSVKGRFTISRDNAKNNVYLQMNSLKPEDTAVYYCAAETSSAEVDYWGQGTQVTVSS | low polyreactivity
9 | QVQLVESGGGLVQAGGSLRLSCAASGSTFYLNAKGWYRQAPGKERELVAASSSSGGSTYYADSVKGRFTISRDNAKNTVYLQMNSLKPEDTAVYYCACSCVPAVSVYGGDYWGQGTQVTVSS | low polyreactivity
10 | QVQLVESGGGLVQAGGSLRLSCAASGSTFTGYAMGWYRQAPGKERELVAAISRSGGSTSYADSVKGRFTISRDNAKNTVYLQMNSLKPEDTAVYYCAAQVQGTTRAKQRGGIGELDYWGQGTQLTVSS | low polyreactivity
11 | QVQLVESGGGLVQAGGSLRLSCAASGRTFRFYAMGWYRQAPGKERELVAAITGSGGSTYYADSVKGRFTISRDNAKNTVYLQMNSLKPEDTAVYYCAAQRQQRYYNPEHYNYWGQGTQVTVSS | low polyreactivity
12 | QVQLVESGGGLVQAGGSLRLSCAASGYTFVYYAMGLYREAPGKERELVAAITSGGRTNYADSVKGRFTISRDNAKNTVYLQMNSLKPEDTAVYYCNVDGYYLFVRGYEYWGQGTQVTVSS | low polyreactivity
13 | QVQLVESRGGLVQAGGSLRLSCAASGFIFLGNAMGWYRQAPGKERELVASISRGGSTNYADSVKGRFTISRDNAKNTVYLQMNSLKPEDTAVYYCAADLSDKFGYWGQGTQVTVSS | low polyreactivity
14 | QVQLGESGGGLVQAGGSLLLSCAASGSIFRHYTMGWDSQAPGKERELVAVISSGGNTNYADSVKGRFTISRDNAKNTVYFQMNSLKPEDTAVYYCAARSHRYYSRVNYWGQGTQVTVSS | high polyreactivity
15 | QVQLVESGGGLVQAGGSLRLSCAASGLIFYPYAMGWYRQAPGKERELVAGISSSGDSTYYADSVKGRFTISRDNAKNTVYLEMNSLKPEDTAVYYCNADGWYFEYWGQGTHVTVSS | low polyreactivity
16 | QVQLVESGGGLVQAGGSLRLSCAASGLIFDSYDMGWYRQAPGKERELVAAIRRNGGSTYYADSVKGRFTISRDNAKNTVYLQMNSLKPEDTAVYYCAVDNSGYSGVYWVKMDYWGQGTQVTVSS | low polyreactivity
17 | QGQLVESGGGLVQAGCSLRLSCAASGSTFRRYAMGWDRQAPGKERELVATINWSGGRTYYADSVKGRFTISRDNAKKTGSLQMNRLKPVDTAVYYCAKADYYGYHYYYWGQGTQVTVSS | high polyreactivity
18 | QVQLVESGGGLVQAGGSLRLSCAASGSTFSRYAMGWDRQAPGKEMELVAAISSSGGGTYYADSVKGRFTISRDNAKNTVYLQMNSLKPEDTAVSYCAAKRVHGATGYWGQGTQVTVSS | high polyreactivity
19 | QVQLVESGGGLVQAGGSLRLSCAASGTFWGYAMGWYRQAPGKERELVAAISASGASTSYADSVKGRFTISRDNAKNTVYLQMNSLKPEDTAVYYCDARRNTAYGYWGQGTQVTVSS | high polyreactivity
20 | QLQLVESGRGLVQAGGSLRLSCAASGIIFYYNAMGWYRQAPGKERELVARITWRAGSTYYADSVKGRFTISRDNAKNTVYLQMNSLKPEDTAVYYCAARFTTTGPRGYYYWGQGTQVTVSS | high polyreactivity
21 | QVQLVESGGGLVQAGGSLRLSCAASGRTFRRYAMGWYRQAPGNERELVAAISYNGGRTYYADSVKGRFTISRDNAKNTVYLQMNSLKPEDTAVYYCNARGPSWFGGRYYHWGQGTQVTVSS | high polyreactivity
